Tests used:
[1] = tested on: Notch2 NRR; assay: ELISA binding to purified Notch2 NRR proteins; settings: purified human or mouse protein, up to highest antibody concentration tested
Source text: (§1) The N-myc-Notch transgenes were expressed under control of the inducible tet promoter; bottom row, control expression in the absence of induction with doxycycline (−Dox); top row, induced expression following addition of doxycycline (+Dox); note that the K1-CHO line endogenously expresses Notch2, which is detected by anti-NRR2 in the presence and absence of doxycycline (for example, compare panels 7 and 10).
Anti-Flag antibody was used to capture Flag-Tagged NRR protein from all four Notch receptors in a black walled, high binding plate (Greiner). NRR antibody and E25 control antibodies were bound to the NRR proteins and washed away with PBS. An Alkaline Phosphate conjugated anti-human (H+L) secondary antibody (Jackson ImmunoResearch) was used to detect bound anti-NRR and E25. Unbound secondary was washed away and AP was detected with PNPP substrate (Pierce).

[2] = target: T1, myc-Notch2 on K1-CHO cells (Homo sapiens, UniProt Q04721); assay: FACS binding to K1-CHO cells expressing N-myc-Notch2; assay type: cell-based; settings: doxycycline induced
T1 construct: either the Notch1 or Notch2 extracellular domain and trans-membrane domains were N-terminally myc-tagged; expressed in transfected cells; host or cells: CHO-K1 (Tet-inducible, doxycycline)
Source text: as §1
Expression plasmids were made in which either the Notch1 or Notch2 extracellular domain and trans-membrane domains were N-terminally myc-tagged and expressed under the control of a Tetracycline Response Element (TRE) upstream of a minimal CMV immediate early promoter. These plasmids were stably transfected into CHO-K1 cells (Clonetech), engineered to express a transactivator protein in the presence of Doxycycline that binds to and activates the TRE in the transfected plasmid. Cells were treated with […] doxycycline or vehicle for 48 hrs, and then stained with anti-NRR, anti-myc (9E10, Millipore) or E25 control antibodies and either goat anti-human Alexa 488 or Alexa 647 secondary antibodies (Invitrogen). After staining, cells were run on a FACScalibur machine (BD Biosciences) and 15000 events were collected and range gates were drawn to assess positively and negatively stained populations.

[3] = tested on: Notch2 signaling; assay: Co-culture Notch reporter assay, Notch2 signaling (U87MG cells + Jag1 cells); assay type: cell-based
Experimental: NIH-3T3 cells stably transfected with Jag1 were used to induce Notch signaling in NIH-3T3 cells stably transfected with Notch1 (except for “−Jag1”, which used untransfected NIH-3T3 cells in place of the Jag1-expressing cells). […] NIH-3T3 cells stably transfected with Jag1 were used to induce Notch signaling in U87MG cells, which express high levels of Notch2. The assay was performed as described in (A). […] The assay was performed as in (A) except that the receptor-expressing cells were generated by transient transfection of plasmids expressing the indicated Notch1 receptors.
Co-culture assay in U87MG cells, as described in FIG. 10B.
NIH-3T3 cells either stably transfected with Notch 1 or transiently transfected with plasmids containing other Notch receptors were co-transfected with a Notch-responsive TP-1 (12× CSL) Firefly luciferase reporter and a constitutively active Renilla Luciferase reporter (pRL-CMV, Promega) to control for transfection efficiency. Cells are allowed to recover from the transfection from 6 hours to overnight. Treatments of antibodies and NIH-3T3 cells stably transfected with ligand are used to stimulate the receptor cells. After 20 hours, firefly and Renilla luciferase are measured with Dual Glo Luciferase Assay system (Promega). Eight replicates were analyzed for each condition by dividing the Firefly signal by the Renilla signal to control for transfection efficiency. The mean and standard deviation were calculated and values were normalized to calculated values for co-culture stimulated with NIH-3T3 cells without ligand transfected.

[4] = tested on: intestinal cell differentiation; assay: Histology and immunohistochemistry of mouse intestine tissue; assay type: in vivo; settings: 5 mg/kg, one day after final dosing (FIGS. 15C and 24B)
Source text: (A) Total body weight change (mean+/−standard deviation) vs. time. […] Arrows mark the days of dosing. (B) Immunohistochemical analyses of small intestines. […] In each row as indicated, staining is shown for haemotoxylin and eosin (H & E), Alcian Blue for mucin and to mark secretory goblet cells, lysozyme to mark Paneth cells, Ki-67 for proliferation and Hes1 as a Notch downstream target. See FIGS. 19 and 20 for analyses of the large intestine at day 7 and of the small intestine at day 2, respectively. Bar=40 μm. (C) Comparison of Notch1- versus Notch2-specific inhibition on small intestinal cell differentiation. Small intestines from the study described in (A) were prepared for Alcian Blue and Ki-67 one day after the final dosing with α-gD, α-NRR1 or α-NRR2, as indicated. Bar=50 μm.
Formalin-fixed and paraffin-embedded mouse small intestine tissues were sectioned at 3 micron thickness. Histochemical identification of intestinal cell types was performed with Alcian blue as recommended by the manufacturer (PolyScientific). For anti-Ki67 staining, sections were pretreated with Target Retrieval Solution (S1700, DAKO), and incubated with rabbit anti-Ki67 (1:200, clone SP6, Neomarkers). Secondary goat anti-rabbit at 7.5 μg/ml (Vector labs) was detected with the Vectastain ABC Elite Kit (Vector labs). Ki67 stained sections were counterstained with Mayer's haemotoxylin. For anti-lysozyme staining, sections were processed on the Discovery XT platform (Ventana Medical Systems, Inc.) using CC1m epitope recovery conditions, OmniMap-rabbit detection and Ventana haemotoxylin II/with bluing counterstain. For HES-1 staining, anti-rat HES-1 (clone NM1, MBL, International) was followed by TSA-HRP.
The effect of inhibiting both Notch1 and Notch2 on intestinal cell fate determination was also investigated. […] The intestines were harvested and stained with H&E to reveal the crypt morphology. […] Further experimentation confirmed this observation.

[5] = tested on: DB DLBCL cell line; assay: Growth of DB diffuse large B-cell lymphoma cell line in vitro; assay type: cell-based
Experimental: Diffuse large B-cell lymphoma (DLBCL) is the most common type of non-Hodgkin's lymphoma. […] (See Lee et al., Cancer Sci. 100:920-926, 2009.) However, how DLBCL cells would respond to Notch2 inhibition was not known. Therefore, we investigated the effect of anti-NRR2 on five DLBCL cell lines. The DLBCL lines listed on the right of FIG. 26 were grown in replicates for three days in wells of a 384-well plate. The cell cultures included the indicated concentrations of anti-NRR2 (referred to as “anti-Notch2” in FIGS. 26 and 27), which corresponded to three-fold serial dilutions starting at 10 μg/ml. Growth was assessed using Cell Titer Glo assays (Promega), plotted as the percentage of cell viability relative to treatment with an isotype control antibody. The data points in FIG. 26 represent average values obtained from individual wells for each cell line at the indicated antibody concentrations. […] The DB line was grown in wells of a 12-well plate, and the cultures were treated with DMSO, the gamma-secretase inhibitor DAPT, anti-gD isotype control antibody or anti-NRR2 at the indicated concentrations. Growth was assessed by counting viable cells (Vi-CELL, Beckman Coulter, Fullerton, Calif.) at days 2, 3 and 5 after inoculating and treating the cultures. Values represent the mean of measurements from three independent cultures, plus/minus the standard deviation.

T1 sequence (Q04721 26-1677 limits assumed): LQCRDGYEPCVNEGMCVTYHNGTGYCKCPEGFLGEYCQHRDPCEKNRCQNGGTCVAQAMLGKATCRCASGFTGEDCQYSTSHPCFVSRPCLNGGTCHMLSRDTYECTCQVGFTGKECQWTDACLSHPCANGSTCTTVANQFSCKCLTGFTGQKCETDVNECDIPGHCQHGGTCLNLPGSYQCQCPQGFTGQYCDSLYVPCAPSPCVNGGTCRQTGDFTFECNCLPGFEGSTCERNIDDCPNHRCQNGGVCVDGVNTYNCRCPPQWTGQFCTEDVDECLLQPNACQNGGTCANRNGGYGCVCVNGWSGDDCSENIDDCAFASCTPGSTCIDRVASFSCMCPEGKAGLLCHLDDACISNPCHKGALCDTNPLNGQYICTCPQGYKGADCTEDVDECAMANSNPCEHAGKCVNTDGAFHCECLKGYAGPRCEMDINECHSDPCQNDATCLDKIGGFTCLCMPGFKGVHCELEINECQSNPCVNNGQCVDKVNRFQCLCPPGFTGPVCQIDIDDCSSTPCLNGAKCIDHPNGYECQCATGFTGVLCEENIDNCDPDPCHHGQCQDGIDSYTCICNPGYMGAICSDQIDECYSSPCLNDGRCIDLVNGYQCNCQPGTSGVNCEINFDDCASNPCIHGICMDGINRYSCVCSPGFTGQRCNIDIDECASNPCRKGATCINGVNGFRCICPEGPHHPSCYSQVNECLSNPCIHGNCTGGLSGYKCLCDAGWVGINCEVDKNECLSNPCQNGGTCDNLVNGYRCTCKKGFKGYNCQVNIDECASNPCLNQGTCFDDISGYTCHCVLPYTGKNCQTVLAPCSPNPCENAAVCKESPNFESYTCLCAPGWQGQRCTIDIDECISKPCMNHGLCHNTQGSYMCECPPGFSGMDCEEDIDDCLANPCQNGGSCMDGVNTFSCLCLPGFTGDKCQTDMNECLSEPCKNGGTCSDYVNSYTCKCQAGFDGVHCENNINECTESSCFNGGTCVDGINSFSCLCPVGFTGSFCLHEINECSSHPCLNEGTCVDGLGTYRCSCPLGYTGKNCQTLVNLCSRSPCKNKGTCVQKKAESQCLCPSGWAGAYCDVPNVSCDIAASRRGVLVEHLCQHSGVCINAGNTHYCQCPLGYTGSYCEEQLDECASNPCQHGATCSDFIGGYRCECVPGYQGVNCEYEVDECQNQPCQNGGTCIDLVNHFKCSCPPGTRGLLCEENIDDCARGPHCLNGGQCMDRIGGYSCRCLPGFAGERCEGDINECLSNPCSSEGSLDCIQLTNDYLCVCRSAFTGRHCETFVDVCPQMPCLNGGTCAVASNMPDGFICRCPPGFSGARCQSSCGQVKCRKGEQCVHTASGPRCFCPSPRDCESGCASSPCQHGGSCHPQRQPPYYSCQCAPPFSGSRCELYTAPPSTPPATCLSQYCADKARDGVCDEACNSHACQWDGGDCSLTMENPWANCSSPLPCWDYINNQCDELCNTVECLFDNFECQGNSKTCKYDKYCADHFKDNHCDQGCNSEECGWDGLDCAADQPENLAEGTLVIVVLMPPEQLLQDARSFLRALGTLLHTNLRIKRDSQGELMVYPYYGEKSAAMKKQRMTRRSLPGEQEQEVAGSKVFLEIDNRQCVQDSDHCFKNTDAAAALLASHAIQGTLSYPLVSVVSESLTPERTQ

B1: anti-NRR2: affinity matured form of Antibody D, phage library-derived human anti-Notch2 NRR monoclonal antibody (antibody, V domains shown)
VH: EVQLVESGGGLVQPGGSLRLSCAASGYTFSSYGMSWVRQAPGKGLEWVSYIYPYSGATYYADSVKGRFTISADTSKNTAYLQMNSLRAEDTAVYYCARHSGYYRISSAMDVWGQGTLVTVSA
VL: DIQMTQSPSSLSASVGDRVTITCRASQNIKRFLAWYQQKPGKAPKLLIYGASTRESGVPSRFSGSGSGTDFTLTISSLQPEDFATYYCQQYYRSPHTFGQGTKVEIKR
[1]
  binding to Notch2 NRR proteins: bound specifically
[2]
  binding to myc-Notch2 cells: significantly bound
[3]; Jag1-induced, DAPT 5 μM
  effect on Notch2 reporter signaling: inhibition of Notch2 signaling
[3]; all Notch ligands tested
  inhibition of signaling induced through Jag1, Jag2, D111 and D114: inhibited signaling
[4]
  effects on small intestine (goblet cells, Alcian Blue): did not cause any detectable effects
[5]; days 2, 3 and 5
  growth over time (viable cell counts): suppresses the growth
[5]; three days, three-fold dilutions from 10 μg/ml
  growth (cell viability relative to isotype control): strongly inhibited

Source: patent publication US8404239B2, “Anti-Notch2 NRR antibodies” (Genentech, Inc., priority 2008, dated 2013)
